# Source: IntAct's records for PubMed 25910212
# B1: Emerin (Homo sapiens), P50402 (parent)
# chain: MDNYADLSDTELTTLLRRYNIPHGPVVGSTRRLYEKKIFEYETQRRRLSPPSSSAASSYSFSDLNSTRGDADMYDLPKKEDALLYQSKGYNDDYYEESYFTTRTYGEPESAGPSRAVRQSVTSFPDADAFHHQVHDDDLLSSSEEECKDRERPMYGRDSAYQSITHYRPVSASRSSLDLSYYPTSSSTSFMSSSSSSSSWLTRRAIRPENRAPGAGLGQDRQVPLWGQLLLFLVFVIVLFFIYHFMQAEEGNPF
# partner: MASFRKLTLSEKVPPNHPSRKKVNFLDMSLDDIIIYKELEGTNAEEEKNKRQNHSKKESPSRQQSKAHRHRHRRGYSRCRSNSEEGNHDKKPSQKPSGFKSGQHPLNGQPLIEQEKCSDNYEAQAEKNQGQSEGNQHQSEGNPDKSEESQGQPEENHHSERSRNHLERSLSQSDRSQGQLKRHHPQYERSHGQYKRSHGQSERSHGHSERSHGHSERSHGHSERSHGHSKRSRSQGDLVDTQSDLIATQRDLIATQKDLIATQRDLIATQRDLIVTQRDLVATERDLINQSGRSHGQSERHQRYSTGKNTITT
# B2: Cyclin-dependent kinase 4 inhibitor C (Homo sapiens), P42773 (parent)
# chain: MAEPWGNELASAAARGDLEQLTSLLQNNVNVNAQNGFGRTALQVMKLGNPEIARRLLLRGANPDLKDRTGFAVIHDAARAGFLDTLQTLLEFQADVNIEDNEGNLPLHLAAKEGHLRVVEFLVKHTASNVGHRNHKGDTACDLARLYGRNEVVSLMQANGAGGATNLQ
# partner: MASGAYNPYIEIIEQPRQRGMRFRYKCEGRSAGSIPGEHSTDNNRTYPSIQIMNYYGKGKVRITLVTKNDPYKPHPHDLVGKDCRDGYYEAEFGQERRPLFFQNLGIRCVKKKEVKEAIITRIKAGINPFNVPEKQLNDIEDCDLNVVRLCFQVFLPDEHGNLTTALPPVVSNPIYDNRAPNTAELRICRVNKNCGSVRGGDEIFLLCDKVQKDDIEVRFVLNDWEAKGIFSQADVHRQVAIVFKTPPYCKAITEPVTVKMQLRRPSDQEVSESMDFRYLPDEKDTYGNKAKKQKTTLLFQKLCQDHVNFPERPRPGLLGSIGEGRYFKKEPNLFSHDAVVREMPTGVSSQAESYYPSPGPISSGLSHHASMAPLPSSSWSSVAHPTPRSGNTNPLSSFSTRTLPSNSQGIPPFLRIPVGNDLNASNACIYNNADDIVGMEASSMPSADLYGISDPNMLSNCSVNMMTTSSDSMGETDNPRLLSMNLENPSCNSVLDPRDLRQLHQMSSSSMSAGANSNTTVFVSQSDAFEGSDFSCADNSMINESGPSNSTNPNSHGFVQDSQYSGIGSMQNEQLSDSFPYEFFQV
# B3: Mothers against decapentaplegic homolog 3 (Homo sapiens), P84022 (parent)
# chain: MSSILPFTPPIVKRLLGWKKGEQNGQEEKWCEKAVKSLVKKLKKTGQLDELEKAITTQNVNTKCITIPRSLDGRLQVSHRKGLPHVIYCRLWRWPDLHSHHELRAMELCEFAFNMKKDEVCVNPYHYQRVETPVLPPVLVPRHTEIPAEFPPLDDYSHSIPENTNFPAGIEPQSNIPETPPPGYLSEDGETSDHQMNHSMDAGSPNLSPNPMSPAHNNLDLQPVTYCEPAFWCSISYYELNQRVGETFHASQPSMTVDGFTDPSNSERFCLGLLSNVNRNAAVELTRRHIGRGVRLYYIGGEVFAECLSDSAIFVQSPNCNQRYGWHPATVCKIPPGCNLKIFNNQEFAALLAQSVNQGFEAVYQLTRMCTIRMSFVKGWGAEYRRQTVTSTPCWIELHLNGPLQWLDKVLTQMGSPSIRCSSVS
# partner: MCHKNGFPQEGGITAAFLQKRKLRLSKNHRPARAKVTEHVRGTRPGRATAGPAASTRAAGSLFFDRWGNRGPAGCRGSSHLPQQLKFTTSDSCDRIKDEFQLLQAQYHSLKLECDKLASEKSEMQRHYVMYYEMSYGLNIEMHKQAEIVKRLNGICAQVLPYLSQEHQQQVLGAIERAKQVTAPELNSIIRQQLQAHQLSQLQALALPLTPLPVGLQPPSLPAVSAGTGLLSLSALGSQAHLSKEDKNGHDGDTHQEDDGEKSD
# B4: Acetylcholine receptor subunit gamma (Homo sapiens), P07510-2 (parent)
# chain: MHGGQGPLLLLLLLAVCLGAQGRNQEERLLADLMQNYDPNLRPAERDSDVVNVSLKLTLTNLISLNEREEALTTNVWIEMQWCDYRLRWDPRDYEGLWVLRVPSTMVWRPDIVLENKSQTYSTNEIDLQLSQEDGQTIEWIFIDPEAFTENGEWAIQHRPAKMLLDPAAPAQEAGHQKVVFYLLIQRKPLFYVINIIAPCVLISSVAILIHFLPAKAGGQKCTVAINVLLAQTVFLFLVAKKVPETSQAVPLISKYLTFLLVVTILIVVNAVVVLNVSLRSPHTHSMARGVRKVFLRLLPQLLRMHVRPLAPAAVQDTQSRLQNGSSGWSITTGEEVALCLPRSELLFQQWQRQGLVAAALEKLEKGPELGLSQFCGSLKQAAPAIQACVEACNLIACARHQQSHFDNGNEEWFLVGRVLDRVCFLAMLSLFICGTAGIFLMAHYNRVPALPFPGDPRPYLPSPD
# partner: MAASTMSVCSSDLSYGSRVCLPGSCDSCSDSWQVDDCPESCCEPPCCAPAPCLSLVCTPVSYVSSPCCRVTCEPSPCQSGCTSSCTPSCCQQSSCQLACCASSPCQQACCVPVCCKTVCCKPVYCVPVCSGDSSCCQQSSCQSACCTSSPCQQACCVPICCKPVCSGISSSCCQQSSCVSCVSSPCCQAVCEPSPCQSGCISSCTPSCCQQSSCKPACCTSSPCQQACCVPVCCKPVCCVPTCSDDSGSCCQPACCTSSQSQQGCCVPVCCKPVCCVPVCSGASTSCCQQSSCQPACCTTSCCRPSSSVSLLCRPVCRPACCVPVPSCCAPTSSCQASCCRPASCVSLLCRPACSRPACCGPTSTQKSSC
# B5: U4/U6 small nuclear ribonucleoprotein Prp31 (Homo sapiens), Q8WWY3 (parent)
# chain: MSLADELLADLEEAAEEEEGGSYGEEEEEPAIEDVQEETQLDLSGDSVKTIAKLWDSKMFAEIMMKIEEYISKQAKASEVMGPVEAAPEYRVIVDANNLTVEIENELNIIHKFIRDKYSKRFPELESLVPNALDYIRTVKELGNSLDKCKNNENLQQILTNATIMVVSVTASTTQGQQLSEEELERLEEACDMALELNASKHRIYEYVESRMSFIAPNLSIIIGASTAAKIMGVAGGLTNLSKMPACNIMLLGAQRKTLSGFSSTSVLPHTGYIYHSDIVQSLPPDLRRKAARLVAAKCTLAARVDSFHESTEGKVGYELKDEIERKFDKWQEPPPVKQVKPLPAPLDGQRKKRGGRRYRKMKERLGLTEIRKQANRMSFGEIEEDAYQEDLGFSLGHLGKSGSGRVRQTQVNEATKARISKTLQRTLQKQSVVYGGKSTIRDRSSGTASSVAFTPLQGLEIVNPQAAEKKVAEANQKYFSSMAEFLKVKGEKSGLMST
# partner: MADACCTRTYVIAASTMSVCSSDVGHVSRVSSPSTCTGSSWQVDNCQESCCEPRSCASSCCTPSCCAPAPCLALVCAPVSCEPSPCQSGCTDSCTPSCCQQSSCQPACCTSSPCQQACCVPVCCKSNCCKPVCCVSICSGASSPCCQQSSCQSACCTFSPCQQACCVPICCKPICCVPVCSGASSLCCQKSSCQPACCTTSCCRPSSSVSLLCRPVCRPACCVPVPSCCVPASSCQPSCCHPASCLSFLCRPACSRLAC
# B6: U4/U6 small nuclear ribonucleoprotein Prp31 (Homo sapiens), Q8WWY3 (parent)
# chain: B5 chain
# partner: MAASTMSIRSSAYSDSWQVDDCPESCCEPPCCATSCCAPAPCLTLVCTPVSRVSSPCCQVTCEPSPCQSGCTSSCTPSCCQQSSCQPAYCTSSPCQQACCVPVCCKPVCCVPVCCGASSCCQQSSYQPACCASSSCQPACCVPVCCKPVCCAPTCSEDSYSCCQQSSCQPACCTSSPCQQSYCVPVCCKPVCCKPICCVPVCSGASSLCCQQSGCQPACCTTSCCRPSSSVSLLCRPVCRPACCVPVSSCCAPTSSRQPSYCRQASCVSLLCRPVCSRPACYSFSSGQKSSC
# B7: U4/U6 small nuclear ribonucleoprotein Prp31 (Homo sapiens), Q8WWY3 (parent)
# chain: B5 chain
# partner: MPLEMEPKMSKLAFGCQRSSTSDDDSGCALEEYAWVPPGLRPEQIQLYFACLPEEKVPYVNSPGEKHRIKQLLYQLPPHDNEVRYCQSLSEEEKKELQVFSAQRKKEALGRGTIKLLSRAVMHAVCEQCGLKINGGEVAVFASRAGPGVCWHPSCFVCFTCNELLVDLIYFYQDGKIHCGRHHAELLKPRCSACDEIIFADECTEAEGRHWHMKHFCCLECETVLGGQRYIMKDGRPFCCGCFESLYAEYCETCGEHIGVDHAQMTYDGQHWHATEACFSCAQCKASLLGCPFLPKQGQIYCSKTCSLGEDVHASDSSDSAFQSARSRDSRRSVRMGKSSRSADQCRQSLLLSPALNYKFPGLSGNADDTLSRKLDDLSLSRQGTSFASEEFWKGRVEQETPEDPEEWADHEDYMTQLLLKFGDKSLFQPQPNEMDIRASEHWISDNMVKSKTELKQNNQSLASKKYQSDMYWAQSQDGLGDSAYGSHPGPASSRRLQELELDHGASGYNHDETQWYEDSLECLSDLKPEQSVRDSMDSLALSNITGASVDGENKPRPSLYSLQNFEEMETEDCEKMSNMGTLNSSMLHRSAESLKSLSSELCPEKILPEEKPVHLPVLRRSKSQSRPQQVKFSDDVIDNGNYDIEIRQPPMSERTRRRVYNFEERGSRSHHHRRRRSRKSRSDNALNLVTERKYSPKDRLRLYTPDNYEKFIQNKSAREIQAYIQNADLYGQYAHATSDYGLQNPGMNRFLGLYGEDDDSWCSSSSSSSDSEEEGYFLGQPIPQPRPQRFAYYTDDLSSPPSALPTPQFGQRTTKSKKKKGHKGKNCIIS
# B8: Low density lipoprotein receptor adapter protein 1 (Homo sapiens), Q5SW96 (parent)
# chain: MDALKSAGRALIRSPSLAKQSWGGGGRHRKLPENWTDTRETLLEGMLFSLKYLGMTLVEQPKGEELSAAAIKRIVATAKASGKKLQKVTLKVSPRGIILTDNLTNQLIENVSIYRISYCTADKMHDKVFAYIAQSQHNQSLECHAFLCTKRKMAQAVTLTVAQAFKVAFEFWQVSKEEKEKRDKASQEGGDVLGARQDCTPSLKSLVATGNLLDLEETAKAPLSTVSANTTNMDEVPRPQALSGSSVVWELDDGLDEAFSRLAQSRTNPQVLDTGLTAQDMHYAQCLSPVDWDKPDSSGTEQDDLFSF
# partner: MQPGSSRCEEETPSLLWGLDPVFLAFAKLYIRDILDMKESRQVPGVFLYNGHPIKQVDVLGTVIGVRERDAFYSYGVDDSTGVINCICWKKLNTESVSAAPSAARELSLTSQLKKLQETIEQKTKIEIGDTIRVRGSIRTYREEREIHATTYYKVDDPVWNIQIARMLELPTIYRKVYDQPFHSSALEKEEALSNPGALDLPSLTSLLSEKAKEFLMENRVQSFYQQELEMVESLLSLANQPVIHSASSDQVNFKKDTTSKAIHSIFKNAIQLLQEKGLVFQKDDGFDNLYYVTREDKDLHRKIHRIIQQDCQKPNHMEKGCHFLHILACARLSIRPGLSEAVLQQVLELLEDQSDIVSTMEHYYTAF
# B9: EF-hand domain-containing protein 1 (Homo sapiens), Q5JVL4 (parent)
# chain: MVSNPVHGLPFLPGTSFKDSTKTAFHRSQTLSYRNGYAIVRRPTVGIGGDRLQFNQLSQAELDELASKAPVLTYGQPKQAPPADFIPAHVAFDKKVLKFDAYFQEDVPMSTEEQYRIRQVNIYYYLEDDSMSVIEPVVENSGILQGKLIKRQRLAKNDRGDHYHWKDLNRGINITIYGKTFRVVDCDQFTQVFLESQGIELNPPEKMALDPYTELRKQPLRKYVTPSDFDQLKQFLTFDKQVLRFYAIWDDTDSMYGECRTYIIHYYLMDDTVEIREVHERNDGRDPFPLLMNRQRVPKVLVENAKNFPQCVLEISDQEVLEWYTAKDFIVGKSLTILGRTFFIYDCDPFTRRYYKEKFGITDLPRIDVSKREPPPVKQELPPYNGFGLVEDSAQNCFALIPKAPKKDVIKMLVNDNKVLRYLAVLESPIPEDKDRRFVFSYFLATDMISIFEPPVRNSGIIGGKYLGRTKVVKPYSTVDNPVYYGPSDFFIGAVIEVFGHRFIILDTDEYVLKYMESNAAQYSPEALASIQNHVRKREAPAPEAESKQTEKDPGVQELEALIDTIQKQLKDHSCKDNIREAFQIYDKEASGYVDRDMFFKICESLNVPVDDSLVKELIRMCSHGEGKINYYNFVRAFSN
# partner: B2 partner
# Variants of: B1
# Settings: with luzp4_human LUZP4, Q9P127
row,Variant,effect of a mutation on the interaction
1,S54F,with no effect
2,P183T,with no effect
3,P183H,with no effect
4,D72V,with no effect

# Variants of: B2
# Settings: with REL
row,Variant,effect of a mutation on the interaction
1,V31L,disrupting interaction strength

# Variants of: B3
# Settings: with TLE5, Q08117-2
row,Variant,effect of a mutation on the interaction
1,I170V,with no effect
2,N197I,with no effect

# Variants of: B4
# Settings: with kr107_human KRTAP10-7, P60409
row,Variant,effect of a mutation on the interaction
1,V107G,disrupting interaction strength
2,R86C,disrupting interaction strength
3,R187C,disrupting interaction strength

# Variants of: B5
# Settings: with kr108_human KRTAP10-8, P60410
row,Variant,effect of a mutation on the interaction
1,L107V,with no effect

# Variants of: B6
# Settings: with kr109_human KRTAP10-9, P60411
row,Variant,effect of a mutation on the interaction
1,L107V,with no effect

# Variants of: B7
# Settings: with pric1_human PRICKLE1, Q96MT3
row,Variant,effect of a mutation on the interaction
1,L107V,with no effect

# Variants of: B8
# Settings: with stn1_human STN1, Q9H668
row,Variant,effect of a mutation on the interaction
1,R238W,with no effect

# Variants of: B9
# Settings: with REL
row,Variant,effect of a mutation on the interaction
1,R159W,with no effect
2,R221H,disrupting interaction strength
3,P77T,disrupting interaction strength
4,M448T,with no effect

# Now from value to variant:
row,effect of a mutation on the interaction,Variant
1,disrupting interaction strength,T508R
2,disrupting interaction strength,A394S
